Data on one molecule can be found in article PMC10509710, “Development and validation of a purification system for functional full-length human SR-B1 and CD36” (The Journal of Biological Chemistry, 2023).

The target of the test is oxidized low-density lipoprotein (oxLDL) (oxidized with CuSO4 (residues not told)). Description: MST; Cy5-labeled receptor (RED-NHS, lysines) at constant 20 nM, ligand in a 16-point 1:1 dilution series; exchange buffer (50 mM Hepes pH 7.5, 150 mM NaCl, 0.025% LMNG, 0.005% CHS); 25 °C, 40% MST power; apparent Kd, one-site specific binding; molar values from average molecular weights (267.5 kDa HDL, 3500 kDa oxLDL). The conditions noted are these: both partners purified.

B1: human full-length cluster of differentiation 36 (CD36), glycosylated (receptor, UniProt P16671 1-472, looked up)
chain: MGCDRNCGLIAGAVIGAVLAVFGGILMPVGDLLIQKTIKKQVVLEEGTIAFKNWVKTGTEVYRQFWIFDVQNPQEVMMNSSNIQVKQRGPYTYRVRFLAKENVTQDAEDNTVSFLQPNGAIFEPSLSVGTEADNFTVLNLAVAAASHIYQNQFVQMILNSLINKSKSSMFQVRTLRELLWGYRDPFLSLVPYPVTTTVGLFYPYNNTADGVYKVFNGKDNISKVAIIDTYKGKRNLSYWESHCDMINGTDAASFPPFVEKSQVLQFFSSDICRSIYAVFESDVNLKGIPVYRFVLPSKAFASPVENPDNYCFCTEKIISKNCTSYGVLDISKCKEGRPVYISLPHFLYASPDVSEPIDGLNPNEEEHRTYLDIEPITGFTLQFAKRLQVNLLVKPSEKIQVLKNLKRNYIVPILWLNETGTIGDEKANMFRSQVTGKINLLGLIEMILLSVGVVMFVAFMISYCACRSKTIK
modifications: glycosylated (Sf9); labeled with Cy5 via lysine residues in the MST
notes: CD36, human, full length, 472 amino acids as printed; the methods print a C-terminal hemaglutinin A secretion signal and an N-terminal PreScission cut site, His10 and FLAG; In detergent micelles when purified; also called glycosylated CD36; source: Sf9 cells, baculovirus (MOI 5): on cells and in lysate; also purified (LMNG/CHS solubilisation, TALON cobalt resin, desalting)
Turning to B1, the Kd amounted to 343 ± 286 nM.
